The source of these data is PMC12207370, “Macrocyclic Peptide Probes for Immunomodulatory Protein CD59: Potent Modulators of Bacterial Toxin Activity and Antibody‐Dependent Cytotoxicity” (Angewandte Chemie (International Ed. in English), 2025).

The target of the experiment is T1, biotinylated CD59 (Homo sapiens, UniProt P13987).
T1 construct: Recombinant soluble human CD59 with an additional C-terminal cysteine residue
T1 sequence (P13987 26-102 limits assumed): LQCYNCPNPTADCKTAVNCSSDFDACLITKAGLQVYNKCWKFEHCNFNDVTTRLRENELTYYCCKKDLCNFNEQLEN
The experiment can be described thus: mRNA-display cyclic peptide screen against CD59-biotin, NGS abundance after 6th selection round. To be noted: for Percentage Seq I: counts normalised by total counts of sample Seq I; for Percentage Seq I / Percentage Seq II: percentage of the pool; for Percentage Seq I / Percentage Seq II / Percentage Average / Percentage of the pool, averaged across the two sequencing samples / Percentage of the pool, Seq I / Percentage of the pool, Seq II: sheet R6; for Percentage Seq II: counts normalised by total counts of sample Seq II; for Percentage Average: percentage of the pool averaged across the two sequencing samples; for Counts Seq I / Counts Seq II: raw NGS counts of peptide sequence; for Counts Seq I: sequencing sample Seq I; for Counts Seq I / Counts Seq II / Counts (raw counts for peptide sequence), Seq I / Counts (raw counts for peptide sequence), Seq II: sheet R6 (6th selection round); for Counts Seq II: sequencing sample Seq II; for Counts (raw counts for peptide sequence), Seq I: NGS sample Seq I; for Counts (raw counts for peptide sequence), Seq II: NGS sample Seq II; for Percentage of the pool, averaged across the two sequencing samples: average of Seq I and Seq II; for Percentage of the pool, Seq I: counts normalised by total counts of NGS sample Seq I; for Percentage of the pool, Seq II: counts normalised by total counts of NGS sample Seq II. An outline of the steps:
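Peptide–mRNA fusions were made by in vitro translation with a customised PURE express kit. The kit lacked release factor 1 and methionine and was supplemented with […] initiator tRNA carrying N-chloroacetyl-d-tyrosine. Thioether macrocycles were formed, then enriched and amplified over iterative rounds on CD59-biotin immobilised on streptavidin beads. NGS read counts per sequence were recorded after the 6th selection round.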

With CFYTRIDAFST, the “Percentage Seq I” value is 0.081%, the “Percentage Seq II” value was 0.079%, the “Percentage Average” value is 0.080% and the “Counts Seq I” value is 354. The “Counts Seq II” value stood at 34.

On to SSYRELAHLSC, for which the “Percentage Seq I” value is on record as 0.127%, the “Percentage Seq II” value came to 0.125%, the “Percentage Average” value is 0.126% and the “Counts Seq I” value was 555. The “Counts Seq II” value was found to be 54.

Take VSRGDSTYTLF: the “Percentage Seq I” value is given as 0.031%, the “Percentage Seq II” value amounted to 0.028%, the “Percentage Average” value is on record as 0.030% and the “Counts Seq I” value was found to be 137. Moreover, the “Counts Seq II” value worked out at 12.

Take VAHGSKNSQFW: the “Percentage Seq I” value is reported as 0.349%, the “Percentage Seq II” value was determined as 0.325%, the “Percentage Average” value is 0.337% and the “Counts Seq I” value stood at 1526. Further, the “Counts Seq II” value amounted to 140.

For ITRGSNIYAYG, the “Counts (raw counts for peptide sequence), Seq I” value is given as 79; the “Counts (raw counts for peptide sequence), Seq II” value was found to be 6; the “Percentage of the pool, averaged across the two sequencing samples” value amounted to 0.016%; the “Percentage of the pool, Seq I” value was found to be 0.018%. Further, the “Percentage of the pool, Seq II” value worked out at 0.014%.

Turning to FVRGDLYSVLG, the “Percentage Seq I” value is given as 4.958%, the “Percentage Seq II” value turned out to be 4.911%, the “Percentage Average” value is 4.934% and the “Counts Seq I” value worked out at 21693. The “Counts Seq II” value turned out to be 2116.

Consider SAWGDRQIQYY, for which the “Counts (raw counts for peptide sequence), Seq I” value was 64; the “Counts (raw counts for peptide sequence), Seq II” value is 6; the “Percentage of the pool, averaged across the two sequencing samples” value turned out to be 0.014%; the “Percentage of the pool, Seq I” value is 0.015%. Also, the “Percentage of the pool, Seq II” value worked out at 0.014%.

Regarding LLGTRDYVRLWH, the “Percentage Seq I” value is 0.144%, the “Percentage Seq II” value is 0.139%, the “Percentage Average” value is listed as 0.142% and the “Counts Seq I” value stood at 630. Also, the “Counts Seq II” value is reported as 60.

Turning to CLRKTRDILSV, the “Counts (raw counts for peptide sequence), Seq I” value is 65; the “Counts (raw counts for peptide sequence), Seq II” value turned out to be 6; the “Percentage of the pool, averaged across the two sequencing samples” value is reported as 0.014%; the “Percentage of the pool, Seq I” value is 0.015%. Further, the “Percentage of the pool, Seq II” value is reported as 0.014%.

Turning to RCWVRGSRNYT, the “Counts (raw counts for peptide sequence), Seq I” value amounted to 45; the “Counts (raw counts for peptide sequence), Seq II” value worked out at 4; the “Percentage of the pool, averaged across the two sequencing samples” value is 0.010%; the “Percentage of the pool, Seq I” value came to 0.010%. The “Percentage of the pool, Seq II” value is reported as 0.009%.

For the sequence WVYGSSTFRYQ, the “Percentage Seq I” value came to 0.030%, the “Percentage Seq II” value turned out to be 0.030%, the “Percentage Average” value was found to be 0.030% and the “Counts Seq I” value is on record as 133. Also, the “Counts Seq II” value stood at 13.

Consider FVRGNRYSVLG, for which the “Counts (raw counts for peptide sequence), Seq I” value is 64; the “Counts (raw counts for peptide sequence), Seq II” value is reported as 5; the “Percentage of the pool, averaged across the two sequencing samples” value stood at 0.013%; the “Percentage of the pool, Seq I” value came to 0.015%. Also, the “Percentage of the pool, Seq II” value amounted to 0.012%.

As to GPRNECHSQFQN, the “Percentage Seq I” value was found to be 0.092%, the “Percentage Seq II” value amounted to 0.086%, the “Percentage Average” value came out at 0.089% and the “Counts Seq I” value is 401. Besides, the “Counts Seq II” value worked out at 37.

For the sequence WRDRFDRCVL, the “Percentage Seq I” value amounted to 0.020%, the “Percentage Seq II” value worked out at 0.032%, the “Percentage Average” value worked out at 0.026% and the “Counts Seq I” value was 86. Moreover, the “Counts Seq II” value is listed as 14.

In the case of IARGDRNHQFY, the “Percentage Seq I” value is 0.296%, the “Percentage Seq II” value is listed as 0.251%, the “Percentage Average” value was 0.273% and the “Counts Seq I” value is 1296. In addition, the “Counts Seq II” value came out at 108.

As for FVTGNRDHTRE, the “Counts (raw counts for peptide sequence), Seq I” value worked out at 33; the “Counts (raw counts for peptide sequence), Seq II” value stood at 7; the “Percentage of the pool, averaged across the two sequencing samples” value turned out to be 0.012%; the “Percentage of the pool, Seq I” value is listed as 0.00754%. Further, the “Percentage of the pool, Seq II” value worked out at 0.016%.

For SVTGNRDHTRG, the “Percentage Seq I” value came out at 0.021%, the “Percentage Seq II” value was found to be 0.026%, the “Percentage Average” value was 0.023% and the “Counts Seq I” value is reported as 92. For the same sequence, the “Counts Seq II” value is reported as 11.

In the case of RTCHLRHDGPHA, the “Counts (raw counts for peptide sequence), Seq I” value turned out to be 59; the “Counts (raw counts for peptide sequence), Seq II” value stood at 6; the “Percentage of the pool, averaged across the two sequencing samples” value was 0.014%; the “Percentage of the pool, Seq I” value is 0.013%. Besides, the “Percentage of the pool, Seq II” value is recorded as 0.014%.

As for LWGTHSYVYYRP, the “Counts (raw counts for peptide sequence), Seq I” value came to 46; the “Counts (raw counts for peptide sequence), Seq II” value turned out to be 7; the “Percentage of the pool, averaged across the two sequencing samples” value is 0.013%; the “Percentage of the pool, Seq I” value was determined as 0.011%. The “Percentage of the pool, Seq II” value came to 0.016%.

In the case of FQRGTRSTSWG, the “Percentage Seq I” value was 0.054%, the “Percentage Seq II” value came to 0.035%, the “Percentage Average” value is 0.045% and the “Counts Seq I” value stood at 238. For the same sequence, the “Counts Seq II” value was found to be 15.

For the sequence LCAENPLRPR, the “Percentage Seq I” value is on record as 0.075%, the “Percentage Seq II” value was 0.077%, the “Percentage Average” value stood at 0.076% and the “Counts Seq I” value is given as 329. For the same sequence, the “Counts Seq II” value is 33.

Take FVTGNSDHTRG: the “Counts (raw counts for peptide sequence), Seq I” value worked out at 52; the “Counts (raw counts for peptide sequence), Seq II” value stood at 4; the “Percentage of the pool, averaged across the two sequencing samples” value is on record as 0.011%; the “Percentage of the pool, Seq I” value stood at 0.012%. Moreover, the “Percentage of the pool, Seq II” value amounted to 0.009%.

With CAWGNRYTAYY, the “Counts (raw counts for peptide sequence), Seq I” value came to 68; the “Counts (raw counts for peptide sequence), Seq II” value amounted to 5; the “Percentage of the pool, averaged across the two sequencing samples” value amounted to 0.014%; the “Percentage of the pool, Seq I” value worked out at 0.016%. Moreover, the “Percentage of the pool, Seq II” value amounted to 0.012%.

On to CFAARLSNGDT, for which the “Counts (raw counts for peptide sequence), Seq I” value was 73; the “Counts (raw counts for peptide sequence), Seq II” value turned out to be 7; the “Percentage of the pool, averaged across the two sequencing samples” value was found to be 0.016%; the “Percentage of the pool, Seq I” value is on record as 0.017%. Also, the “Percentage of the pool, Seq II” value was found to be 0.016%.

For WRDRFDQCVL, the “Percentage Seq I” value worked out at 2.463%, the “Percentage Seq II” value stood at 2.351%, the “Percentage Average” value is 2.407% and the “Counts Seq I” value was 10776. The “Counts Seq II” value amounted to 1013.

Take CYGGRTFIYTWS: the “Counts (raw counts for peptide sequence), Seq I” value stood at 74; the “Counts (raw counts for peptide sequence), Seq II” value worked out at 4; the “Percentage of the pool, averaged across the two sequencing samples” value worked out at 0.013%; the “Percentage of the pool, Seq I” value came to 0.017%. Moreover, the “Percentage of the pool, Seq II” value was found to be 0.009%.

Consider WSTGSSTFAAG, for which the “Percentage Seq I” value was found to be 0.034%, the “Percentage Seq II” value is listed as 0.042%, the “Percentage Average” value is 0.038% and the “Counts Seq I” value was found to be 149. The “Counts Seq II” value was 18.

Turning to HVFGNRSLTRG, the “Counts (raw counts for peptide sequence), Seq I” value was 93; the “Counts (raw counts for peptide sequence), Seq II” value was determined as 5; the “Percentage of the pool, averaged across the two sequencing samples” value turned out to be 0.016%; the “Percentage of the pool, Seq I” value is recorded as 0.021%. The “Percentage of the pool, Seq II” value amounted to 0.012%.

For the sequence EIRGALNWVRG, the “Percentage Seq I” value is given as 0.125%, the “Percentage Seq II” value is given as 0.146%, the “Percentage Average” value is listed as 0.136% and the “Counts Seq I” value is given as 549. The “Counts Seq II” value came out at 63.

Take CFVNRLGSAESR: the “Counts (raw counts for peptide sequence), Seq I” value was 63; the “Counts (raw counts for peptide sequence), Seq II” value stood at 9; the “Percentage of the pool, averaged across the two sequencing samples” value stood at 0.018%; the “Percentage of the pool, Seq I” value amounted to 0.014%. Further, the “Percentage of the pool, Seq II” value is listed as 0.021%.

Take FVRGDLYSILG: the “Counts (raw counts for peptide sequence), Seq I” value came to 50; the “Counts (raw counts for peptide sequence), Seq II” value was 6; the “Percentage of the pool, averaged across the two sequencing samples” value was 0.013%; the “Percentage of the pool, Seq I” value is 0.011%. Moreover, the “Percentage of the pool, Seq II” value came out at 0.014%.

Turning to FVRGDPYSVLG, the “Percentage Seq I” value is given as 0.057%, the “Percentage Seq II” value is given as 0.049%, the “Percentage Average” value stood at 0.053% and the “Counts Seq I” value stood at 251. Besides, the “Counts Seq II” value is 21.

In the case of SWTWGNRSSARG, the “Percentage Seq I” value is 0.025%, the “Percentage Seq II” value was 0.035%, the “Percentage Average” value amounted to 0.030% and the “Counts Seq I” value is given as 110. The “Counts Seq II” value came out at 15.

Take NSCPDWVRGSRT: the “Percentage Seq I” value worked out at 0.229%, the “Percentage Seq II” value is on record as 0.262%, the “Percentage Average” value turned out to be 0.246% and the “Counts Seq I” value is reported as 1002. The “Counts Seq II” value is given as 113.
